In patent US20210155712A1:

Target: human HER4 expressed on HEK293 cells (human) (UniProt Q15303)
Assay: flow cytometry, HEK293 HER4 overexpressing cells, PE-A B2-A channel

human HER4 expressed on HEK293 cells (human), sequence (Q15303 26-1308): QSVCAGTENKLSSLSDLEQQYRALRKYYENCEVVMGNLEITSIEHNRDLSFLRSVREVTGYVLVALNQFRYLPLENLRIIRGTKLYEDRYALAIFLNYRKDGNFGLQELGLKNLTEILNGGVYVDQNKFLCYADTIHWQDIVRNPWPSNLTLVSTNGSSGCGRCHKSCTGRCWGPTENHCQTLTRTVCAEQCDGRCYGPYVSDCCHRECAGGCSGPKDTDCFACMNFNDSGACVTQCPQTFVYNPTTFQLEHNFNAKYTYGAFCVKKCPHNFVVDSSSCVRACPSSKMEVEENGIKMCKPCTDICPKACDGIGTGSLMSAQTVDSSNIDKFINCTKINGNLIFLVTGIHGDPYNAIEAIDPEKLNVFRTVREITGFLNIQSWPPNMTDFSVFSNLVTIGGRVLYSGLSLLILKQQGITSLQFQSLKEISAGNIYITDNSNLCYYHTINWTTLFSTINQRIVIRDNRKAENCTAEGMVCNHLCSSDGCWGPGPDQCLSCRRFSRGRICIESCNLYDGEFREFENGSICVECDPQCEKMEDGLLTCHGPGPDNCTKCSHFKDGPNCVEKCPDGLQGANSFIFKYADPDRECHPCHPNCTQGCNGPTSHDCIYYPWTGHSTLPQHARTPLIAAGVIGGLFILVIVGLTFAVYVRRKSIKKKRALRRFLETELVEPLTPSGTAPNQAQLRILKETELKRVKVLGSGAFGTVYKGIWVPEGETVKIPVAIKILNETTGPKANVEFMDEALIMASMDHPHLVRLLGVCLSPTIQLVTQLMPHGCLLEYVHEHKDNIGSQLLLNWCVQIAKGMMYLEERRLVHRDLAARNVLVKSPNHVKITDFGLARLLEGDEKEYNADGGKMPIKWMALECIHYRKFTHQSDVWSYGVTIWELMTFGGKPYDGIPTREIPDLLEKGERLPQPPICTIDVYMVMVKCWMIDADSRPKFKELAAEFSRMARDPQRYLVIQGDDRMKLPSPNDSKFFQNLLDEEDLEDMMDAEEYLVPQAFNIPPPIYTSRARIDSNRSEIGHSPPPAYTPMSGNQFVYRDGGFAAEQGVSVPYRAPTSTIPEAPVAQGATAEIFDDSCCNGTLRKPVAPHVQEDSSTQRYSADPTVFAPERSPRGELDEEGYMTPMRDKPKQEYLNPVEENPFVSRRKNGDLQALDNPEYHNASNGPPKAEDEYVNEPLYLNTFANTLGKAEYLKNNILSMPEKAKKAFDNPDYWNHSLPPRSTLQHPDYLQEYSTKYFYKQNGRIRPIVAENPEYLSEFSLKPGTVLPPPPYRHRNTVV

% Positive for HER4: 8.73%
B1: MM-121 (antibody, INN chains, looked up, human IgG2, V domains shown)
VH: EVQLLESGGGLVQPGGSLRLSCAASGFTFSHYVMAWVRQAPGKGLEWVSSISSSGGWTLYADSVKGRFTISRDNSKNTLYLQMNSLRAEDTAVYYCTRGLKMATIFDYWGQGTLVTVSS
VL: QSALTQPASVSGSPGQSITISCTGTSSDVGSYNVVSWYQQHPGKAPKLIIYEVSQRPSGVSNRFSGSKSGNTASLTISGLQTEDEADYYCCSYAGSSIFVIFGGGTKVTVL
modifications: IgG2/kappa
